{"source": "patent EP3848397A1", "about": "(NANJING UMAB-BIOPHARMA CO., LTD., dated 2021)", "assay_in_all_cases": "cell-based or functional assay", "key": {"[1]": {"molecular_target": "T1, OX40 on Jurkat-OX40-NFκB-luciferase reporter cells (UniProt P43489 29-277)", "T1 sequence (looked up)": "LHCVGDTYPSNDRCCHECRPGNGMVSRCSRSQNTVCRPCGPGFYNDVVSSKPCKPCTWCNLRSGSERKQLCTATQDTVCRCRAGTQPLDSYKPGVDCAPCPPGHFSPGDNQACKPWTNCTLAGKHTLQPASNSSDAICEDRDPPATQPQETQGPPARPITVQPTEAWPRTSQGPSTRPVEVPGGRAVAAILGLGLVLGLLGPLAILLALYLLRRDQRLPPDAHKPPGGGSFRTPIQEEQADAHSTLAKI"}, "[2]": {"molecular_target": "T1, OX40 on Jurkat-OX40-NFκB-luciferase …", "remark": "listed apart in the source"}, "[3]": {"molecular_target": "T1, OX40 on Jurkat-OX40-NFκB-luciferase …", "remark": "listed apart in the source"}}, "note": "Read-outs that look alike come from different tables or passages of the source."}
{"binder": "MT01-C1 (antibody, human IgG1, V domains shown) VH: EVQLVQSGAEVKKPGESLKISCKASGYTFTSYVMHWLRQMPGKGLEWMGYINPYNDGTKYNEKFKGQVTISSDKSISTAYLQWSSLKASDTAMYYCANYYGSKFAMDYWGQGTMVTVSS VL: DIQMTQSPSSVSASVGDRVTITCRASQDISNYLSWYQQKPGGAVKLLIYYTSRLHSGVPSRFSGSGSGTDYTLTISSLQPEDFATYFCQQGITLPWTFGQGTKVEIK", "values": [{"measurement": "EC50 of NFκB-luciferase reporter activation (FcR-mediated)", "setting": "[1]", "result": 0.0452, "unit": "ng/mL"}, {"measurement": "Activation activity of OX40 signaling pathway, EC50", "setting": "[2]", "result": 0.325, "unit": "nM"}, {"measurement": "Activation activity of OX40 signaling pathway, EC50", "setting": "[3]", "result": 0.178, "unit": "nM"}]}
